PMC1361355

Key:
ephrinB2 (Homo sapiens) = ephrinB2 (Homo sapiens) (UniProt P52799); details: cited from earlier work
[1] = target: human ephrinB2 stably expressed on CHO-pgsA745 cells (CHO-B2) (human) (UniProt P52799); experiment: flow cytometry on cells

EphB4, sequence (P54760 16-539): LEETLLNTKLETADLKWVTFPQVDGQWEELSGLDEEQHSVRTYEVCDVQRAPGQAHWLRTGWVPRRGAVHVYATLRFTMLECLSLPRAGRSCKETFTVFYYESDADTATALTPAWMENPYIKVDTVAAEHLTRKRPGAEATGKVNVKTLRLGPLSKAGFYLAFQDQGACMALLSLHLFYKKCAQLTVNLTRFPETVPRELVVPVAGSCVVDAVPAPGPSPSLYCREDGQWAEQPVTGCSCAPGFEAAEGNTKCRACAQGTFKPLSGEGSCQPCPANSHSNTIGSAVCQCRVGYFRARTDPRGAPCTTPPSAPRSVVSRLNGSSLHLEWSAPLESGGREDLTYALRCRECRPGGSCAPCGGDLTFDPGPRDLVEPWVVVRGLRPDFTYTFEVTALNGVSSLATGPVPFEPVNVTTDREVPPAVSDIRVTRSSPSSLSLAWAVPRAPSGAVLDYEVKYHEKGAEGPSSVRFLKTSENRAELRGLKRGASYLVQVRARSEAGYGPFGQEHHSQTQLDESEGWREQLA
ephrinB2 (Homo sapiens), sequence (P52799 28-229): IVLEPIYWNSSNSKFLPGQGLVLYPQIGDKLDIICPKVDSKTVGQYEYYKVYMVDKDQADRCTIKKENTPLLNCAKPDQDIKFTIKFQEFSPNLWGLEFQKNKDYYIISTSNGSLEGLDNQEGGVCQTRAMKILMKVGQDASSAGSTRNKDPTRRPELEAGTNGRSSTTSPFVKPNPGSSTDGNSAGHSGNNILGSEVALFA

| Substance | Kd (ephrinB2 (Homo sapiens)) [nM] | Kd [1] [nM] |
| --- | --- | --- |
| EphB4 (from UniProt P54760) | 0.5 |  |
| NiV-G-Fc, a fusion construct between the ectodomain of NiV-G and the Fc region of human IgG1 (from UniProt Q9IH62 71-602) (Fc fusion) |  | 0.06 |
